Test results: US20260042834A1, “ANTI-CORTICOTROPIN-RELEASING HORMONE ANTIBODIES AND POLYCYSTIC OVARY SYNDROME” (HBM ALPHA THERAPEUTICS, INC., priority 2022, published 2026)

System: restraint-induced ACTH and corticosterone
Experiment: Wildtype mice restraint-stress model (ACTH and corticosterone)
Assay type: in vivo, mouse
Protocol: 8-10 week old wildtype female C57BL/6 mice were obtained from Charles River Laboratories. Mrap1 KO mice were obtained from Queen Mary University of London, UK. SSR125543A, a small molecule CRHR1 antagonist, was obtained from Axon Medchem (Cat #Axon 1799). Mouse Corticosterone (55-Corms-E01) and adrenocorticotropic hormone (ACTH) ELISA kits (21-ACTHU-E01) were obtained from ALPCO, USA. All procedures were carried out in accordance with the Guide for the Care and Use of Laboratory Animals of the National Institutes of Health. Protocols were approved by Charles River Laboratories Institutional Animal Care and Use Committee (IACUC).
To determine the effect of nonpainful physical restraint upon stress responses, mice were restrained in 50 ml polypropylene ventilated tubes in which the tip was cut off with a razor blade to allow the mouse to breathe easily for 15-20 minutes. A mouse was directed to the open tube and crawled in. A piece of paper towel was put behind the mouse so that it could not back out, and the cap was screwed on. The mouse was placed back in its cage, ventral size down on the bedding. This stressor is not considered painful, as mice are confined to a limited space (in a ventilated restraint tube) but not in an unnatural physical position. The investigator was present in the room during the entire procedure. At the end of the procedure, the mouse was removed by the tail.
On day 1, each mouse was injected intraperitoneally with 20 mg/kg of anti-CRH mAbs, hIgG1 or PBS (5 mice per group). On day 2 or 3, and 14 each mouse was subjected to physical restraint-stress described above for 15 or 20 min. Immediately after restraint-stress, 200 μl of blood was collected in EDTA tubes from the submandibular vein of each mouse. Plasma was separated using a refrigerated centrifuge (4° C. at 500×g for 10 min) and snap-frozen in dry ice for subsequent ACTH and corticosterone ELISA measurement.
On day 1, one half of mice were injected IP with 20 mg/kg of anti-CRH Ab or hIgG1 (5 mice per group). On day 3, the other half of mice were injected IP with 30 mg/kg of SSR125543A or solvent (5 mice each group). Two hours later, four groups of mice were subjected to restraint-stress as described above for 20 min. Immediately after restraint-stress, 200 μl of blood was collected in EDTA tubes from the submandibular vein of each mouse in all four groups. Plasma was separated as described above and snap-frozen in dry ice for subsequent ACTH and corticosterone ELISA measurement. On day 4, SSR125543A or solvent-treated mice were subjected to a second round of restraint stress for 20 min and plasma was collected. Two weeks later, anti-CRH mAb- or hIgG1-treated mice were subjected to physical stress for 20 min followed by plasma collection.

B1: PR302334-24: humanized variant of Series 9 mAb PR302334; VH SEQ ID NO: 275, VL SEQ ID NO: 328 (antibody, V domains shown)
VH: EVQLVESGGGLVKPGGSLRLSCAASGFTFSTYAMSWVRQAPGKGLEWVASIRSGGTTYYPDSVKGRFTISRDNAKNSLYLQMNSLRAEDTAVYYCTRGIDWGQGTTVTVSS
VL: DIVMTQSPDSLAVSLGERATINCKASQSVNNDVAWYQQKPGQPPRLLIYYASNRYTGVPDRFSGSGSGTDFTLTISSLQAEDLAVYFCQQDYSSWTFGGGTKVEIK
modifications: PR302334-16 VH, PR302334-24 VH, PR302334-25 VH; PR302334-10 VL, PR302334-24 VL, PR302334-26 VL, PR302334-4 VL
Doses not given
  efficacy versus SSR125543A at inhibiting restraint induced ACTH and corticosterone: superior efficacy
restraint
  duration of the effects: at least 17 days
  inhibition of ACTH and corticosterone versus SSR125543A: more complete inhibition
restraint, mAb 20 mg/kg
  efficacy in reducing plasma ACTH and corticosterone levels versus SSR125543A at 30 mg/kg: more efficacious
